From US20240216513A1, “FATTY ACID-BIFUNCTIONAL DEGRADER CONJUGATES AND THEIR METHODS OF USE” (Novartis AG, priority 2021, published 2024) come the findings set out here.

A short description of data set [1]: In vivo pharmacokinetic study in mice (i.v. or s.c.), FAC and payload in blood. The arrangement: species or system mouse. The note with it: for AUC: male, C57/B16, whole blood. The method, then:
(§1) Pharmacokinetic studies were conducted in male C57/B16 mice; male Sprague-Dawley rats; male Beagle dogs and male Cynomolgus monkeys. 3 animals per group were used for each study performed. All studies were performed in accordance with local animal welfare regulations.
[…] Serial 30 µL blood samples were collected via venipuncture of the tail vein in mouse, and via the cannulated jugular vein in rats at defined timepoints to 216 hours (into EDTA coated tubes).
(§2) Each blood sample was precipitated with acetonitrile containing internal standard; samples were mixed and centrifuged (20 minutes 4000 RPM at 4° C.). Supernatant was transferred to a microwell plate and evaporated under nitrogen at 60° C. Residue was resuspended in acetonitrile/water (7:3 v/v); plate sealed and transferred to an ultrasonic bath for 3 minutes, prior to analysis. Quantification was performed by LC-MS/MS (SciexAP16500 Q-trap, Shimadzu Nexera X2) using a Phenomenex Polar RP analytical column (2.5 μm particle size; 50×2 mm). The mobile phase consisted of solvent A (0.1% formic acid in water) and solvent B (0.1% formic acid in acetonitrile). The fatty acid conjugate and API were detected using multiple reaction monitoring.
(§3) Data analysis and calculation of non-compartmental pharmacokinetic parameters was
(§4) performed using an in-house analysis. Following intravenous administration whole blood clearance was calculated by the dose administered divided by AUC0-inf. Volume of distribution at steady state was calculated as MRT*CL, where MRT is the mean residence time, calculated by AUMC0-inf/AUC0-inf. The half-life (t1/2) of the terminal elimination phase was calculated by 0.693/λ. For both intravenous and subcutaneous administration, the systemic exposures were determined by calculating the area under the blood concentration time curve (AUC) from time zero to the last observed quantifiable concentration (AUClast) by using the linear trapezoidal method and normalised to dose. Extrapolated AUC (AUC0-inf) is calculated by addition of AUClast and AUCtlast-inf; where AUCtlast-inf is calculated based on Clast/λ. The slope of the terminal elimination phase was estimated by linear regression of the terminal data points (minimum 3 points) from a natural log concentration versus time plot of the data. Bioavailability was calculated as the dose normalized ratio of […] AUCinf to intravenous AUCinf (100*[SC AUCinf/SC dose]/[IV AUCinf/IV dose]). Following subcutaneous administration Cmax is calculated as the average maximum observed peak concentration and Tmax is the time associated with the determined Cmax.
For PK experiments, non-tumor bearing mice or rats were treated once (10 mL/kg) with a compound either i.v. or s.c. Serial blood samplings from the tail vein (5-20 μl) were collected during the course of the experiment. For PK/PD experiments in tumor-bearing mice, compound was administered once (10 mL/kg) either i.v. or s.c. Animals were randomized into groups of n=3 and tissue samples were collected at several time points. At the times indicated, animals were anaesthetized by exposure to 2-3% v/v isoflurane in medical oxygen. They were sacrificed without recovering from anesthetic after blood sampling into commercially prepared EDTA coated tubes (Milian, cat #TOM-14C) in order to extract plasma. The tissues were excised, weighted and rapidly frozen in liquid nitrogen. Later, tumors were cryogenic dry pulverized with the CryoPrep™ system (model CP-02, Covaris). For efficacy experiments in ectopic tumor-bearing mice, animals were randomized into groups of n=6 for a mean tumor size of 100 mm^3 and compound was administered either i.v. q3w or s.c. q2w. When implanted in brain, animals were randomized into groups of n=4 for a mean bioluminescence of 1.0-2.0E+06 [p/s]/[ρW/cm^2] and compound was administered i.v. qw. Tumor response were reported with the measures of tumor volumes or bioluminescence from the treatment start. […]

A short description of data set [2]: In vivo pharmacokinetic study in Beagle dogs (i.v. or s.c.), FAC and payload in blood. Also noted: species or system dog. The method, then:
as §1
Between 1 and 10 µM/kg FAC was administered either intravenously or subcutaneously as a solution in 10 mM PBS with NaOH (dose volume 0.4 mL/kg in dog and monkey s.c. and 0.2 mL/kg i.v. in monkey). Serial 100 µL blood samples were collected via venipuncture of the cephalic vein at defined timepoints to 336 hours (into EDTA coated tubes).
as §2, §3, §4

Data set [3] in a line: BTK FAC plasma stability assay, PBS buffer arm. It counts as physicochemical. The note with it: for Plasma stability (h) PBS: incubation to 24 h. The gist of the method:
(§5)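 Compound from a 500 µM acetonitrile:water working solution was spiked into K3-EDTA plasma or Dulbecco's PBS and incubated with shaking at 38 °C. Samples taken at 0, 2, 6 and 24 h were precipitated with cold acetonitrile containing glyburide internal standard. Semi-quantitative LC-MS/MS used analyte:internal standard peak area ratios.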

The nature of data set [4]: BTK FAC plasma stability assay, rat plasma. The note with it: for Plasma stability (h) rat: incubation to 24 h. It counts as in vitro ADME. The gist of the method: as §5
Data set [5] can be described thus: BTK FAC plasma stability assay, mouse plasma. It counts as in vitro ADME. The note with it: for Plasma stability (h) mouse: incubation to 24 h. The gist of the method: as §5
The nature of data set [6]: BTK FAC plasma stability assay, dog plasma. It counts as in vitro ADME.
Data set [7] can be described thus: BTK FAC plasma stability assay, cyno plasma. It counts as in vitro ADME, cynomolgus monkey.
Another data set concerns the target T1, BTK C481S (Homo sapiens, UniProt Q06187, C481S).
T1 construct: endogenous in cells; host or cells: TMD8 BTK C481S mutant tumour xenografts in mice
The data set can be described thus: PD screen in TMD8 BTK C481S mutant tumor-bearing mice, BTK levels and compound concentrations in blood and tumor. It counts as in vivo, mouse. The note with it: i.v.; 50 umol/kg. The method, then: All animal studies were conducted in accordance with ethics and procedures covered by permit nos. BS-1975 issued by the Kantonales Veterinäramt Basel-Stadt and in strict adherence to guidelines of the Eidgenössisches Tierschutzgesetz and the Eidgenössische Tierschutzverordnung, Switzerland. All animals had access to food and water ad libitum and were identified with transponders. They were housed in a specific pathogen-free facility with a 12-h light/12-h dark cycle. For PD screen experiments in TMD8 BTK C481S mutant tumor-bearing mice, FAC was injected once. Animals were randomized into groups of 2 and tissue samples collected at day 0, 4, 7 and in some studies day 10 as well. Blood samples were collected and tumors were excised, weighed, frozen in liquid nitrogen and cryogenic dry pulverized with the CryoPrep™ system (model CP-02, Covaris). Concentrations of compounds in blood and tumors were determined by UPLC/MS-MS and BTK levels were analyzed by Meso Scale Discovery.

Like-named read-outs stand apart in the source and are kept apart here. Marks after values point to notes of the source that are not given here.

T1 sequence (Q06187 whole entry C481S): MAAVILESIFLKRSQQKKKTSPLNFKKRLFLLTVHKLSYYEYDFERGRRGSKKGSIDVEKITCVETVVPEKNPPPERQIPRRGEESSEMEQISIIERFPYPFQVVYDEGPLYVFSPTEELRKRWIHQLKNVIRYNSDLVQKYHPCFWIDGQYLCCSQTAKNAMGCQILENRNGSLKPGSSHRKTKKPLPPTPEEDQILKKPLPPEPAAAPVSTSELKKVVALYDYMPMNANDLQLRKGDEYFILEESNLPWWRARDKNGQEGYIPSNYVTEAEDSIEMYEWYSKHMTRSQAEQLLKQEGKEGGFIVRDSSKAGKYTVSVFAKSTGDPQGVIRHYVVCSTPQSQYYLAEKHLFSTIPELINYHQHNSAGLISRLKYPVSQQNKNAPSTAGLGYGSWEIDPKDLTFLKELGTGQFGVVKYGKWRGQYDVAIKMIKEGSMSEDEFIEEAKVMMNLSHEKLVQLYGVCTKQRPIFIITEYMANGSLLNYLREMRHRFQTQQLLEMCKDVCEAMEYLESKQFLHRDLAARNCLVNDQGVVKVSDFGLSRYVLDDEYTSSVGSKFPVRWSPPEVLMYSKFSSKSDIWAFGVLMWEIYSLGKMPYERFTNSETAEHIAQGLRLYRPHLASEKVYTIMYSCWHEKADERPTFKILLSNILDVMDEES

As for `COc1ccc(C(=O)N2CCC3(CCN(CCc4ccc(-c5cc6c(-c7cc(F)cc(NC(=O)N8C[C@H](CC(C)C)[C@@H](O)C8)c7C)ncnc6[nH]5)cc4)CC3)CC2)cc1N1CCC(=O)NC1=O` [Compound Va, (3R,4S)—N-(3-(6-(4-(2-(9-(3-(2,4-dioxotetrahydropyrimidin-1(2H)-yl)-4-methoxybenzoyl)-3,9-diazaspiro[5.5]undecan-3-yl)ethyl)phenyl)-7H-pyrrolo[2,3-d]pyrimidin-4-yl)-5-fluoro-2-methylphenyl)-3-hydroxy-4-isobutylpyrrolidine-1-carboxamide], in data set [1] (API i.v., listed as note (20 mg/kg), species taken as mouse), the “Payload C0-uM (unconjugated degrader dosed, first payload cell)” value was found to be 16.7 µM. Also, the AUC in data set [1] (iv, API i.v., listed as note (20 mg/kg), species taken as mouse, read-out: Payload AUC-uM.h (unconjugated degrader dosed, first payload cell)) was determined as 15.2 µM·h; in data set [1] (sc, mouse, subcutaneous dosing, unconjugated Compound Va at 20 mg/kg, read-out: Payload AUC), 15.2 µM·h.

Consider `CCCCCCCCCCCN(C(=O)CCCCCCCCCC(=O)O)C(CCC(=O)NCCOCCOCCOCCOCCOCCOCCOCCOCCOCCOCCOCCOCCC(=O)NCC(=O)OC(C)(C)c1ccc(C(=O)Nc2cc(F)cc(-c3ncnc4[nH]c(-c5ccc(CCN6CCC7(CC6)CCN(C(=O)c6ccc(OC)c(N8CCC(=O)NC8=O)c6)CC7)cc5)cc34)c2C)c(F)c1)C(=O)O` (stereo not drawn) [Example A1, 50-Carboxy-2-(4-((3-(6-(4-(2-(9-(3-(2,4-dioxotetrahydropyrimidin-1(2H)-yl)-4-methoxybenzoyl)-3,9-diazaspiro[5.5]undecan-3-yl)ethyl)phenyl)-7H-pyrrolo[2,3-d]pyrimidin-4-yl)-5-fluoro-2-methylphenyl)carbamoyl)-3-fluorophenyl)-2-methyl-4,7,47,52-tetraoxo-51-undecyl-3,10,13,16,19,22,25,28,31,34,37,40,43-tridecaoxa-6,46,51-triazadohexacontan-62-oic acid], for which the C0 in data set [2] (analyte FAC, FAC i.v. dose 1 umol/kg, read-out: FAC C0-uM dog) is 27.2 µM. In addition, the AUC in data set [2] (male, Beagle, dog, whole blood, iv, analyte FAC, FAC i.v. dose 1 umol/kg, read-out: FAC AUC-uM.h dog) worked out at 6.8 µM·h. For the same molecule, in data set [2] (male, Beagle, whole blood, sc, dog, subcutaneous dosing, FAC s.c. dose 1 umol/kg, read-out: FAC C0), the C0 was determined as 0.28 µM. In addition, in data set [3], the “% Release of degrader after 24 h PBS” value is listed as 1% and the “Plasma stability (h) PBS” value is listed as over 48 h. For the same molecule, in data set [4], the “% Release of degrader after 24 h rat” value is on record as 17.4% and the “Plasma stability (h) rat” value is 34.8 h. For the same molecule, in data set [5], the “% Release of degrader after 24 h mouse” value worked out at 15.1% and the “Plasma stability (h) mouse” value is 28 h. Further, in data set [6], the “Plasma stability (h) dog” value is over 48 h and the “% Release of degrader after 24 h dog” value is reported as 14.6%.

As to `CCCCCCCCCCCN(C(=O)CCCCCCCCCC(=O)O)C(CCC(=O)NCCOCCOCCOCCOCCOCCOCCOCCOCCOCCOCCOCCOCCC(=O)N[C@@H](C)CC(=O)OC(C)(C)c1ccc(C(=O)Nc2cc(F)cc(-c3ncnc4[nH]c(-c5ccc(CCN6CCC7(CC6)CCN(C(=O)c6ccc(OC)c(N8CCC(=O)NC8=O)c6)CC7)cc5)cc34)c2C)c(F)c1)C(=O)O` (stereo partly drawn) [Example A20, (6S)-51-Carboxy-2-(4-((3-(6-(4-(2-(9-(3-(2,4-dioxotetrahydropyrimidin-1(2H)-yl)-4-methoxybenzoyl)-3,9-diazaspiro[5.5]undecan-3-yl)ethyl)phenyl)-7H-pyrrolo[2,3-d]pyrimidin-4-yl)-5-fluoro-2-methylphenyl)carbamoyl)-3-fluorophenyl)-2,6-dimethyl-4,8,48,53-tetraoxo-52-undecyl-3,11,14,17,20,23,26,29,32,35,38,41,44-tridecaoxa-7,47,52-triazatrihexacontan-63-oic acid], in data set [7], the “Plasma stability (h) cyno” value is on record as over 48 h and the “% Release of degrader after 24 h cyno” value is reported as 0.2%. In data set [3], the “% Release of degrader after 24 h PBS” value is listed as 0.2% and the “Plasma stability (h) PBS” value is over 48 h. Moreover, in data set [4], the “% Release of degrader after 24 h rat” value turned out to be 0.3% and the “Plasma stability (h) rat” value is recorded as over 48 h. In data set [5], the “% Release of degrader after 24 h mouse” value is 0.5% and the “Plasma stability (h) mouse” value is recorded as over 48 h. For the same molecule, in data set [6], the “Plasma stability (h) dog” value was over 48 h and the “% Release of degrader after 24 h dog” value is given as 0.4%. In addition, on BTK C481S, the “Duration of BTK degradation in mouse ≥90% (days)” value is given as 7* days.

For `CCCCCCCCCCCN(C(=O)CCCCCCCCCC(=O)O)C(CCC(=O)NCCOCCOCCOCCOCCOCCOCCOCCOCCOCCOCCOCCOCCC(=O)N1CCC(CC(=O)OC(C)(C)c2ccc(C(=O)Nc3cc(F)cc(-c4ncnc5[nH]c(-c6ccc(CCN7CCC8(CC7)CCN(C(=O)c7ccc(OC)c(N9CCC(=O)NC9=O)c7)CC8)cc6)cc45)c3C)c(F)c2)CC1)C(=O)O` (stereo not drawn) [Example A21, 44-Carboxy-1-(4-(2-((2-(4-((3-(6-(4-(2-(9-(3-(2,4-dioxotetrahydropyrimidin-1(2H)-yl)-4-methoxybenzoyl)-3,9-diazaspiro[5.5]undecan-3-yl)ethyl)phenyl)-7H-pyrrolo[2,3-d]pyrimidin-4-yl)-5-fluoro-2-methylphenyl)carbamoyl)-3-fluorophenyl)propan-2-yl)oxy)-2-oxoethyl)piperidin-1-yl)-1,41,46-trioxo-45-undecyl-4,7,10,13,16,19,22,25,28,31,34,37-dodecaoxa-40,45-diazahexapentacontan-56-oic acid], in data set [7], the “Plasma stability (h) cyno” value is given as over 48 h and the “% Release of degrader after 24 h cyno” value turned out to be 0.4%. In addition, in data set [3], the “% Release of degrader after 24 h PBS” value was 0.2% and the “Plasma stability (h) PBS” value is listed as over 48 h. Further, in data set [4], the “% Release of degrader after 24 h rat” value was 0.5% and the “Plasma stability (h) rat” value is given as over 48 h. In data set [5], the “% Release of degrader after 24 h mouse” value is reported as 1.9% and the “Plasma stability (h) mouse” value is listed as over 48 h. In data set [6], the “Plasma stability (h) dog” value is recorded as over 48 h and the “% Release of degrader after 24 h dog” value stood at 0.3%. The “Duration of BTK degradation in mouse ≥90%” value on BTK C481S is given as under 4 days.
